# Assays:
# [1] = biological target: YF17D virus particles (live-attenuated YFV 17D) (yellow fever virus, strain 17D); assay: BLI
# [2] = biological target: YF17D VLPs containing only E and M proteins (yellow fever virus, strain 17D); assay: BLI
substance,measurement,setting,value
Fc-tagged LRP8-LBD (LRP8 LA1237 with a C-terminal human IgG Fc) (Fc fusion),Kd,[1],460 nM
same,Kd,[2],300 nM

# Reference: article doi:10.1101/2025.10.28.685229
